Source: article doi:10.1101/2021.05.10.443412

Legend:
[1] = target: T1, factor inhibiting HIF-1 (FIH-1), full-length (human), Q9NWT6; assay: SEC; conditions: remark: other sources report otherwise
[2] = target: T1, factor inhibiting HIF-1 (FIH-1), …; assay: SEC-MALS; conditions: remark: other sources report otherwise

B1: factor inhibiting HIF-1 (FIH-1), full-length, Q9NWT6 1-349 (enzyme)
chain: MAATAAEAVASGSGEPREEAGALGPAWDESQLRSYSFPTRPIPRLSQSDPRAEELIENEEPVVLTDTNLVYPALKWDLEYLQENIGNGDFSVYSASTHKFLYYDEKKMANFQNFKPRSNREEMKFHEFVEKLQDIQQRGGEERLYLQQTLNDTVGRKIVMDFLGFNWNWINKQQGKRGWGQLTSNLLLIGMEGNVTPAHYDEQQNFFAQIKGYKRCILFPPDQFECLYPYPVHHPCDRQSQVDFDNPDYERFPNFQNVVGYETVVGPGDVLYIPMYWWHHIESLLNGGITITVNFWYKGAPTPKRIEYPLKAHQKVAIMRNIEKMLGEALGNPQEVGPLLNTMIKGRYN
- stoichiometry N [1]: 2
- stoichiometry N [2]: 2
